For series [1], the target named is tau, shortest isoform (tau352).

Experimental findings from patent US20070134724 are described below.

tau, shortest isoform (tau352), sequence (chain, as listed by the source): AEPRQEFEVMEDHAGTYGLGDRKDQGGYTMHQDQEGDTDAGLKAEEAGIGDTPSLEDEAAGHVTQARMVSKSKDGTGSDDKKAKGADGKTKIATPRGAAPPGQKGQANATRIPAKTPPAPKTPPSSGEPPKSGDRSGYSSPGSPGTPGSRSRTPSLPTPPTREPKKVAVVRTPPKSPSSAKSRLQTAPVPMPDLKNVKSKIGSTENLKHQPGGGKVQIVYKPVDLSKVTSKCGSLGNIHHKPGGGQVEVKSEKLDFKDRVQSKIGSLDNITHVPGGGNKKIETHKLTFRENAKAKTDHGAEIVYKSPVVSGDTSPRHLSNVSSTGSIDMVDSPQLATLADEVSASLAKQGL

B1: abl2 tyrosine kinase (protein)
chain: GQQVGRVGEAPGLQQPQPRGIRGSSAARPSGRRRDPAGRTTETGFNIFTQHDHFASCVEDGFEGDKTGGSSPEALHRPYGCDVEPQALNEAIRWSSKENLLGATESDPNLFVALYDFVASGDNTLSITKGEKLRVLGYNQNGEWSEVRSKNGQGWVPSNYITPVNSLEKHSWYHGPVSRSAAEYLLSSLINGSFLVRESESSPGQLSISLRYEGRVYHYRINTTADGKVYVTAESRFSTLAELVHHHSTVADGLVTTLHYPAPKCNKPTVYGVSPIHDKWEMERTDITMKHKLGGGQYGEVYVGVWKKYSLTVAVKTLKEDTMEVEEFLKEAAVMKEIKHPNLVQLLGVCTLEPPFYIVTEYMPYGNLLDYLRECNREEVTAVVLLYMATQISSAMEYLEKKNFIHRDLAARNCLVGENHVVKVADFGLSRLMTGDTYTAHAGAKFPIKWTAPESLAYNTFSIKSDVWAFGVLLWEIATYGMSPYPGIDLSQVYDLLEKGYRMEQPEGCPPKVYELMRACWKWSPADRPSFAETHQAFETMFHDSSISEEVAEELGRAASSSSVVPYLPRLPILPSKTRTLKKQVENKENIEGAQDATENSASSLAPGFIRGAQASSGSPALPRKQRDKSPSSLLEDAKETCFTRDRKGGFFSSFMKKRNAPTPPKRSSSFREMENQPHKKYELTGNFSSVASLQHADGFSFTPAQQEANLVPPKCYGGSFAQRNLCNDDGGGGGGSGTAGGGWSGITGFFTPRLIKKTLGLRAGKPTASDDTSKPFPRSNSTSSMSSGLPEQDRMAMTLPRNCQRSKLQLERTVSTSSQPEENVDRANDMLPKKSEESAAPSRERPKAKLLPRGATALPLRTPSGDLAITEKDPPGVGVAGVAAAPKGKEKNGGARLGMAGVPEDGEQPGWPSPAKAAPVLPTTHNHKVPVLISPTLKHTPADVQLIGTDSQGNKFKLLSEHQVTSSGDKDRPRRVKPKCAPPPPPVMRLLQHPSICSDPTEEPTALTAGQSTSETQEGGKKAALGAVPISGKAGRPVMPPPQVPLPTSSISPAKMANGTAGTKVALRKTKQAAEKISADKISKEALLECADLLSSALTEPVPNSQLVDTGHQLLDYCSGYVDCIPQTRNKFAFREAVSKLELSLQELQVSSAAAGVPGTNPVLNNLLSCVQEISDVVQR
For the protein B1, in the series with tau, the “phosphorylation of Y-to-F tau mutants co-transfected with abl2 (western blot with anti-pY)” value is “Abl2 strongly phosphorylates Y394, with lower levels of phosphorylation at Y197 and Y310”; the “phosphorylation of tau at Y310 (western blot with YP21)” value is given as “demonstrating phosphorylation of tau at Y310”; the “phosphorylation of the long (4R) isoform co-transfected with abl2 (western blot, sandwich ELISA)” value was “Y394 was the predominant site of abl2 phosphorylation”; the “tyrosine phosphorylation of tau with and without Gleevec (western blot, ELISA)” value is “Abl1 or abl2 transfected into the cell is what directly phosphorylates tau”. For the same protein, the “phosphorylation of the short (3R) isoform co-transfected with abl2 (western blot, sandwich ELISA)” value in series [1] is “Y394 was the predominant site of abl2 phosphorylation”.

B2: Gleevec-resistant abl2 (T3611 form) (protein)
chain: GQQVGRVGEAPGLQQPQPRGIRGSSAARPSGRRRDPAGRTTETGFNIFTQHDHFASCVEDGFEGDKTGGSSPEALHRPYGCDVEPQALNEAIRWSSKENLLGATESDPNLFVALYDFVASGDNTLSITKGEKLRVLGYNQNGEWSEVRSKNGQGWVPSNYITPVNSLEKHSWYHGPVSRSAAEYLLSSLINGSFLVRESESSPGQLSISLRYEGRVYHYRINTTADGKVYVTAESRFSTLAELVHHHSTVADGLVTTLHYPAPKCNKPTVYGVSPIHDKWEMERTDITMKHKLGGGQYGEVYVGVWKKYSLTVAVKTLKEDTMEVEEFLKEAAVMKEIKHPNLVQLLGVCTLEPPFYIVIEYMPYGNLLDYLRECNREEVTAVVLLYMATQISSAMEYLEKKNFIHRDLAARNCLVGENHVVKVADFGLSRLMTGDTYTAHAGAKFPIKWTAPESLAYNTFSIKSDVWAFGVLLWEIATYGMSPYPGIDLSQVYDLLEKGYRMEQPEGCPPKVYELMRACWKWSPADRPSFAETHQAFETMFHDSSISEEVAEELGRAASSSSVVPYLPRLPILPSKTRTLKKQVENKENIEGAQDATENSASSLAPGFIRGAQASSGSPALPRKQRDKSPSSLLEDAKETCFTRDRKGGFFSSFMKKRNAPTPPKRSSSFREMENQPHKKYELTGNFSSVASLQHADGFSFTPAQQEANLVPPKCYGGSFAQRNLCNDDGGGGGGSGTAGGGWSGITGFFTPRLIKKTLGLRAGKPTASDDTSKPFPRSNSTSSMSSGLPEQDRMAMTLPRNCQRSKLQLERTVSTSSQPEENVDRANDMLPKKSEESAAPSRERPKAKLLPRGATALPLRTPSGDLAITEKDPPGVGVAGVAAAPKGKEKNGGARLGMAGVPEDGEQPGWPSPAKAAPVLPTTHNHKVPVLISPTLKHTPADVQLIGTDSQGNKFKLLSEHQVTSSGDKDRPRRVKPKCAPPPPPVMRLLQHPSICSDPTEEPTALTAGQSTSETQEGGKKAALGAVPISGKAGRPVMPPPQVPLPTSSISPAKMANGTAGTKVALRKTKQAAEKISADKISKEALLECADLLSSALTEPVPNSQLVDTGHQLLDYCSGYVDCIPQTRNKFAFREAVSKLELSLQELQVSSAAAGVPGTNPVLNNLLSCVQEISDVVQR
For the protein B2, the “tyrosine phosphorylation of tau in the presence of Gleevec (western blot, ELISA)” value with tau is “In the presence of Gleevec, both forms could phosphorylate tau”.
